{"source": "the DeepSol protein solubility set"}
{"experiment": "soluble on expression in E. coli; label from the status in PepcDB or PDB records"}
{"sequence": "MAHHHHHHMYSSVRPYKILQKVKRNDNNSNSNSNNNSNSNSNSSSIRNPPNEAKKEPTEREDSGKKKPVEKKKKYEDLKYYECNRKSLSTKSQEAEGRDKITKYNNKTNQHADNNHVKKLQSEKVLKKKEDMLVTLLKKEQSSVHNKKIIIRHLPPTLSEDNFFESFPSNLKDELDYYYYVNGCVPKNQGGDITHSRMYLSFKDDLKTKEFIKTQHGKFFYDSNGGKFKAMVSFAPYQTIIHKNKLDEMNNTLESDAYFLKCCEEMNNPQEPVKKDDDNADLSNVIKEDGVILPPLVVALRKKLKNKKLK", "soluble on expression in E. coli": "not soluble"}
{"sequence": "MGSDKIHHHHHHMSILTVENVSHSYGEKTILYNACFRLLKGEHVGLVGQNGIGKSTLLKILTGELIHDEGNIEWFPHVKVGFLQQHIDLQEGITIEGYLQSAFADLYVIECEMLKIAEEMNGAGEVEKLLVKYGELQTILESSNFYHIHTEVEEVAIGLGLFEIGLKKDVSKLSGGQRTKLLLGKLLLEKADVLLLDEPTNYLDTAHIEWLQSYLRLYEKAYVIISHDELFLNSITNVIFHLEGGKVKRYVGNYEKFVQSYQVQKKQLQSAYVKQQKEISQLETFIQKNKIRKAKQAKSREKVLEKMQRIEKIHPVPRSRFDFNVYEEPVSRILQAEKLRIGYSDPLCPELNLQVKKGEKIAIIGHNGIGKTTMLKTLLGQIKPLSGSISVGERVNPAYFAQEEFASETTPLEKVWAERPDMTKKEVRQALAKCGLKEEHVLKPIRLLSGGEQTKVRLCELIVKKSNVLILDEPTNHLDIETKKALQEALQRYRGTVLLVSHEPSFYEAWITKVWNIEEWNAEQYE", "soluble on expression in E. coli": "not soluble"}
{"sequence": "MGSDKIHHHHHHMLQLPDSPPRMKTLVSVDESYKLCRHLTAKYAKTFYLGTLLMSPVKRQSIWSIYAWCRRTDELVDGPASAITTPETLDLWEQQLESIFAGRPLENYDVALVDTLQRFPMDIQPFRDMIAGQRMDLYRSRYETFEDLYLYCYRVAGTVGLMSTEVMGVDSTLYTAPWHQNKQPYLPTEEAIALGIANQLTNILRDVGEDAKRGRIYIPLEDLEKFNYTEQDFFKGVVDDRWRALMRFQIERARQFYTTSNQGITYLASDARWPVWAASMLYGQILEVIERNDYDVFSRRAFVPQWKKLRTLPLAWMRSQVL", "soluble on expression in E. coli": "not soluble"}
{"sequence": "MGSDKIHHHHHHQTPAPLAEWQFSAGIPLEKLFEDTIPDWEVRLGGAAMVRPRYDGSSNYIVVGGPSIDIRYRDIAFASIGEGLGVNVLRGKNWRAGIALSYNLGRRAKETSPLLDGMENINPAPEAKLFAEYAVSKEFPLVMRVDARRSLGGSDGWIGDIGAYMPMPGSSEKFFWFAGPTMTLADSRYMNAWYGVSASQARPGRPQFSPSGGVRSYGFGVSAVWFFDKHWFATTDVAVMQLVGDAKRSPLTQSSTNGVFDVSVNYQF", "soluble on expression in E. coli": "not soluble"}
{"sequence": "MGSDKIHHHHHHMKIAQVCPRFYPHIGGVETHVYEIASRIAKKFDVEVLTTDPGGKLPKVEEIDGLTVRRFKSLAPSEAYYFSPELYDYLKKNSSDYDVVHAHNYHAFPALFAALTKGKNKLIFTPHYHGSGHSFFRNVLHKPYKIFGRKIFKRADAIVCVSNYEKNLVLKNFKVAEDRTYVIPNGINLDEFKDIEKIKRNKESWKKTILYVGRVEKYKGLDYVVKSLKHLPDNFTLEVVGKGSYKSKIVEMAKKLDVIDRIRFYQDLSRKELIDRYAKADVLVLLSKHEAYGIVVAEALAAKTPCIVANTSALSEWIDNKNVFGIDYPINVSELARLIERVSNVKAGDMKLLDWDDVNERLIRIYSAKI", "soluble on expression in E. coli": "not soluble"}
{"sequence": "MSSALTDLFPLPIVQAPMAGGVSVPQLAAAVCEAGGLGFLAAGYKTADGMYQEIKRLRGLTGRPFGVNVFMPQPELAESGAVEVYAHQLAGEAAWYETELGDPDGGRDDGYDAKLAVLLDDPVPVVSFHFGVPDREVIARLRRAGTLTLVTATTPEEARAVEAAGADAVIAQGVEAGGHQGTHRDSSEDDGAGIGLLSLLAQVREAVDIPVVAAGGIMRGGQIAAVLAAGADAAQLGTAFLATDESGAPGPHKRALTDPLFARTRLTRAFTGRPARSLVNRFLREHGPYAPAAYPDVHHLTSPLRKAAAKAGDAQGMALWAGQGHRMARELPAGRLVEVLAAELAEARTALSDASRENESRKGHHHHHH", "soluble on expression in E. coli": "soluble"}
{"sequence": "EAHQIRRSGNYQPALWDSNYIQSLNTPYTEERHLDRKAELIVQVRILLKEKMEPVQQLELIHDLKYLGLSDFFQDEIKEILGVIYNEHKCFHNNEVEKMDLYFTALGFRLLRQHGFNISQDVFNCFKNEKGIDFKASLAQDTKGMLQLYEASFLLRKGEDTLELAREFATKCLQKKLDEGGNEIDENLLLWIRHSLDLPLHWRIQSVEARWFIDAYARRPDMNPLIFELAKLNFNIIQATHQQELKDLSRWWSRLCFPEKLPFVRDRLVESFFWAVGMFEPHQHGYQRKMAATIIVLATVIDDIYDVYGTLDELELFTDTFKRWDTESITRLPYYMQLCYWGVHNYISDAAYDILKEHGFFCLQYLRKSVVDLVEAYFHEAKWYHSGYTPSLDEYLNIAKISVASPAIISPTYFTFANASHDTAVIDSLYQYHDILCLAGIILRLPDDLGTSYFELARGDVPKTIQCYMKETNASEEEAVEHVKFLIREAWKDMNTAIAAGYPFPDGMVAGAANIGRVAQFIYLHGDGFGVQHSKTYEHIAGLLFEPYA", "soluble on expression in E. coli": "soluble"}
{"sequence": "MSVPAGSVSCLANALLNLRSSTDYNADHGVKNSILNFSNSKDASRFDGSESWSSSVLDKNQFIVAGSDSVKHFVAISTQGRGDHDQWVTSYKLRYTLDNVNWVEYNNGEIINANKDRNSIVTINFNPPIKARSIAIHPQTYNNHISLRWELYALPVKSYSNPSVQVGEVSIGDRSLNSGTGSRTIVRHVKFPVEFLSVPIVSIGCKKVDAHTDNGQMRWEGKSENITTKGFDLTFITWGNNAVYDLTFDYVAVEFNN", "soluble on expression in E. coli": "soluble"}
{"sequence": "MGSDKIHHHHHHMELNLQTAELALREASESNPGAWADHSRFVAEACKNIASHCKDLSSEQAYIFGLLHDIGRYAGVSSERHLIDGYRYCMERGWEKAAQICISHAFMIQDIATSIGVFDVSDEDYLFMKEFVANAVYDDYDRLVQLCDALAMPSGFCLLEKRFVDVTMRYGVHPATIDRWKKILEIKEQFENQIGCSIYSLLPGIVENSFR", "soluble on expression in E. coli": "not soluble"}
{"sequence": "MADTSCKLKPLCFRFVSTLKSPIAVITVTYSPGKYLASFLDSLPGATSRDTHVVMADNGSVDGVPEQAAASRSNVEFLSTGGNLGYGTAINIAARSLRARREAGEIDGEFFLVSNPDVVFDEDSIDQLLECAKRHPEAGAVGPLIREADGSAYPSARAVPTLANGIGHALLGAVWKSNPWSAAYRDDEDMDTERTAGWLSGSCLLLRWDAFDRVGGFDERYFMYMEDVDLGDRLVRAGFTNVFCPSAQIIHAKGHVAGKNPENMLPAHHESAYRFQADRLAKPWQAPIRLALRIGLKLRAGVAVGVSKMRTKASLEHHHHHH", "soluble on expression in E. coli": "not soluble"}
{"sequence": "RGSGWFAGFPVYSWFFGRDGLWMALAANMVGLAGLTYEHTNMLLKYSDDGRIPHEIGLADDGDQGYTIGETKFNTMYMSIDSSPLWLLASASMENWDRSRFEERHLKKVFDFIASCDTDGDGLIENDFRRGLIGWPETWANIRNGKTVDVNALWIEVLRIFGYRFGYDEYQKIRDRYMSTFFAGANSVDFVDMEYHEIRSAMQFVPGIFMRNEAIRSRIKDLSAGMMTPWGIRSMSVYDPMYDGGYHTGTVWPLMTGWFVIAAYKNGLPDLAFNQMRTFVDLAFSADDPGRINETYDAMMPQPTGQFAQGWSSSMLLLSVLQGMLNIDPLS", "soluble on expression in E. coli": "not soluble"}
{"sequence": "MSLELLSKLETKIQATLETIELLKMELEEEKQKTSTLSEQNNQLIEQNQQLQQELTSWNEKVTGLVGLLNSEI", "soluble on expression in E. coli": "soluble"}
{"sequence": "MAALRNGLEGSSEETSFHDESLQDDREEIENNSYHMHPAGIILTKVGYYTIPSMDDLAKITNEKGECIVSDFTIGRKGYGSIYFEGDVNLTNLNLDDIVHIRRKEVVVYLDDNQKPPVGEGLNRKAEVTLDGVWPTDKTSRCLIKSPDRLADINYEGRLEAVSRKQGAQFKEYRPETGSWVFKVSHF", "soluble on expression in E. coli": "soluble"}
{"sequence": "MQAFRAPSLATIDDVCGTRADGYDGAPLRSIPDFAVIVPMHNEEASVETLVAEIVTACQPVGQFEIVVVDDASSDRTVNAVLSLGDRYPMLRLVRHDRQGGQSAAIHSGVQAARAPVICMLDGDGQNPPDNLPALLAPLLSATATSRLGLVAGQRVGRRDTLGKRLSSRFANGLRARILKDGTRDTGCGLKAFRRDAYLALPYFDHHHRYFPALFNRDGWQVAHVDVTHRARLHGNSHYTNIGRALVGIHDLIGVVWLLRRRKRSSWAETFKTETSPLEHHHHHH", "soluble on expression in E. coli": "soluble"}
{"sequence": "MSKIFEDNSLTIGHTPLVRLNRIGNGRILAKVESRNPSFSVKCRIGANMIWDAEKRGVLKPGVELVEPTSGNTGIALAYVAAARGYKLTLTMPETMSIERRKLLKALGANLVLTEGAKGMKGAIQKAEEIVASNPEKYLLLQQFSNPANPEIHEKTTGPEIWEDTDGQVDVFIAGVGTGGTLTGVSRYIKGTKGKTDLISVAVEPTDSPVIAQALAGEEIKPGPHKIQGIGAGFIPANLDLKLVDKVIGITNEEAISTARRLMEEEGILAGISSGAAVAAALKLQEDESFTNKNIVVILPSSGERYLSTALFADLFTEKELQQ", "soluble on expression in E. coli": "soluble"}
{"sequence": "MRSSTIPAITPAYDPWEAYVDIKEYGKLQLTNIEFTTTTLCNMRCEHCAVGYTLTMKDPEALPLDMLLRRLEEIPHLRSLSITGGEPMLSLKSVEQYVVPLLRYAHERGVRTQLNSNLTLDLSRYEPVIPYLDVLHISHNWGTVDDFVEGGFAMMERKPTRAQREKYFQRMLDNAKALANAGVMVSAETMLNKRTVRHLEAIHRQVVEEMGCQRHEIHPMYPSDFASALETLSLDELREAIHHLLDIRDENVWMLFGTLPFYPCSDNEEDVRLLKRLYESKNVTVRNDPDGRSRLNVNIFTGDVIVTDFGDEPPLGNIIHDSLPDVYDKWRRSKLARELLCHCPSARCLGPNVLVKQTYYRGVDFTKRSARIGR", "soluble on expression in E. coli": "not soluble"}
{"sequence": "EKVDIDLRDQVSLQHGAQIFTNYCLSCHSASGMRFNRLKDIGLTDEEIKKNLMFTTDNVGDVMHSAMNPKDAAKWFGAAPPDLTLIARSKGADYLYAYMRGFYKDPTRPSGWNNTVFDKVGMPHPLWEQQGVQAVELDAKGQPVMVKDEHGEMKPKLYWESTGLHSRRLPNGKVIQKEYDAYVRDLVNYLVYMGEPAQLQRKR", "soluble on expression in E. coli": "not soluble"}
{"sequence": "MGSDKIHHHHHHMSAQVQDLTPIKGVTYYYPPHDAVLVFKDGAAEIPYGGLPVPLLEEDYASLDGEPSYDAVGRGVYQTLRTNPDCIHCAAYATLLRDAYPHYLAELASHAIMLDSKDVEVPYIDRKIVSLKVLSLLEPDNAGLPLEIGRAYLDRGLRLSALHMSTVSIYRAEHFLRRALELTPEDGRALRLLGEVCYLLGKYEEAASCWLDTLDLADADEAERFRVRLARISEGRLPLIAPVDYLEAIGAAFTCFHTGDYEEAVAILQDVLMDGIFCAEFPIADIHCVIGKSFVQLDMPRYAEESFRAALQLDPAHEESLACLRKVTGEE", "soluble on expression in E. coli": "not soluble"}
{"sequence": "MGSDKIHHHHHHMRMLRRGSRGNDVAEVQVRLSELGYIPGPIDGIFGPKTEAAVIRFQKDRGLNPDGIVGPLTYQALFQPGPQPGYVLYTIKAGDTFYKLSLAFGVSLNEIIAANPGVDPYQLRIGQQVRIPKGGPGRRHTFSAWIPYWVQQEAMAVVRQHAELMTTLSPFWYELTPTGDLLLYPNAEDSSLIEFARSRGIELIPLVANNYDRQLISTVLNNPDLRQRNIAQIVNKVRSMNYTGIEIDYENIAAADRELFVLFLRELKAALAPYNKKLYVAIQAKTRADEPVSIGHDYGGIGAAVDVVRLMLYDYSWDNPGPIAPASWIRQVLDYAVTVIPPAKLEAGLPTYGYDWGTTRRSITYDDAIRLAQQHGAQIIQDPQRGPHFNYTDADGIAHQVWFTNALNFATFVDIVNQYNLRGISIWHPGGDDPQIYTVIQDRLE", "soluble on expression in E. coli": "not soluble"}
